First the molecules themselves.
B1: Bovine wild-type (antibody, part only; not given: variable domains, light chain, IgG1, not shown: another chain or arm of the molecule)
Fc: PPELPGGPSVFIFPPKPKDTLTISGTPEVTCVVVDVGHDDPEVKFSWFVDNVEVNTATTKPREEQFNSTYRVVSALRIQHQDWTGGKEFKCKVHNEGLPAPIVRTISRTKGPAREPQVYVLAPPQEELSKSTVSLTCMVTSFYPDYIAVEWQRNGQPESEDKYGTTPPQLDADSSYFLYSKLRVDRNSWQEGDTYTCVVMHEALHNHYTQKSTSKSA
B2: Bovine Q309V (antibody, part only; not given: variable domains, light chain, IgG1, not shown: another chain or arm of the molecule)
Fc: PPELPGGPSVFIFPPKPKDTLTISGTPEVTCVVVDVGHDDPEVKFSWFVDNVEVNTATTKPREEQFNSTYRVVSALRIVHQDWTGGKEFKCKVHNEGLPAPIVRTISRTKGPAREPQVYVLAPPQEELSKSTVSLTCMVTSFYPDYIAVEWQRNGQPESEDKYGTTPPQLDADSSYFLYSKLRVDRNSWQEGDTYTCVVMHEALHNHYTQKSTSKSA
B3: Bovine T252Y (antibody, part only; not given: variable domains and light chain, IgG1, not shown: another chain or arm of the molecule)
Fc: PPELPGGPSVFIFPPKPKDTLYISGTPEVTCVVVDVGHDDPEVKFSWFVDNVEVNTATTKPREEQFNSTYRVVSALRIQHQDWTGGKEFKCKVHNEGLPAPIVRTISRTKGPAREPQVYVLAPPQEELSKSTVSLTCMVTSFYPDYIAVEWQRNGQPESEDKYGTTPPQLDADSSYFLYSKLRVDRNSWQEGDTYTCVVMHEALHNHYTQKSTSKSA
B4: Porcine T286E (antibody, part only; not given: variable domains and light chain, IgG1a, not shown: another chain or arm of the molecule)
Fc: GCEVAGPSVFIFPPKPKDTLMISQTPEVTCVVVDVSKEHAEVQFSWYVDGVEVHEAETRPKEEQFNSTYRVVSVLPIQHQDWLKGKEFKCKVNNVDLPAPITRTISKAIGQSREPQVYTLPPPAEELSRSKVTVTCLVIGFYPPDIHVEWKSNGQPEPEGNYRTTPPQQDVDGTFFLYSKLAVDKARWDHGETFECAVMHEALHNHYTQKSISKTQGK
B5: Porcine N434Y (antibody, part only; not given: variable domains and light chain, IgG1a, not shown: another chain or arm of the molecule)
Fc: GCEVAGPSVFIFPPKPKDTLMISQTPEVTCVVVDVSKEHAEVQFSWYVDGVEVHTAETRPKEEQFNSTYRVVSVLPIQHQDWLKGKEFKCKVNNVDLPAPITRTISKAIGQSREPQVYTLPPPAEELSRSKVTVTCLVIGFYPPDIHVEWKSNGQPEPEGNYRTTPPQQDVDGTFFLYSKLAVDKARWDHGETFECAVMHEALHYHYTQKSISKTQGK
B6: Porcine A426Y (antibody, part only; not given: variable domains, light chain, IgG1a, not shown: another chain or arm of the molecule)
Fc: GCEVAGPSVFIFPPKPKDTLMISQTPEVTCVVVDVSKEHAEVQFSWYVDGVEVHTAETRPKEEQFNSTYRVVSVLPIQHQDWLKGKEFKCKVNNVDLPAPITRTISKAIGQSREPQVYTLPPPAEELSRSKVTVTCLVIGFYPPDIHVEWKSNGQPEPEGNYRTTPPQQDVDGTFFLYSKLAVDKARWDHGETFECYVMHEALHNHYTQKSISKTQGK
B7: Porcine Q311V (antibody, part only; not given: variable domains and light chain, IgG1a, not shown: another chain or arm of the molecule)
Fc: GCEVAGPSVFIFPPKPKDTLMISQTPEVTCVVVDVSKEHAEVQFSWYVDGVEVHTAETRPKEEQFNSTYRVVSVLPIQHVDWLKGKEFKCKVNNVDLPAPITRTISKAIGQSREPQVYTLPPPAEELSRSKVTVTCLVIGFYPPDIHVEWKSNGQPEPEGNYRTTPPQQDVDGTFFLYSKLAVDKARWDHGETFECAVMHEALHNHYTQKSISKTQGK
B8: Porcine Q309D (antibody, part only; not given: variable domains and light chain, IgG1a, not shown: another chain or arm of the molecule)
Fc: GCEVAGPSVFIFPPKPKDTLMISQTPEVTCVVVDVSKEHAEVQFSWYVDGVEVHTAETRPKEEQFNSTYRVVSVLPIDHQDWLKGKEFKCKVNNVDLPAPITRTISKAIGQSREPQVYTLPPPAEELSRSKVTVTCLVIGFYPPDIHVEWKSNGQPEPEGNYRTTPPQQDVDGTFFLYSKLAVDKARWDHGETFECAVMHEALHNHYTQKSISKTQGK
B9: Porcine Q309V (antibody, part only; not given: variable domains, light chain, IgG1a, not shown: another chain or arm of the molecule)
Fc: GCEVAGPSVFIFPPKPKDTLMISQTPEVTCVVVDVSKEHAEVQFSWYVDGVEVHTAETRPKEEQFNSTYRVVSVLPIVHQDWLKGKEFKCKVNNVDLPAPITRTISKAIGQSREPQVYTLPPPAEELSRSKVTVTCLVIGFYPPDIHVEWKSNGQPEPEGNYRTTPPQQDVDGTFFLYSKLAVDKARWDHGETFECAVMHEALHNHYTQKSISKTQGK
B10: Porcine M252Y (antibody, part only; not given: variable domains and light chain, IgG1a, not shown: another chain or arm of the molecule)
Fc: GCEVAGPSVFIFPPKPKDTLYISQTPEVTCVVVDVSKEHAEVQFSWYVDGVEVHTAETRPKEEQFNSTYRVVSVLPIQHQDWLKGKEFKCKVNNVDLPAPITRTISKAIGQSREPQVYTLPPPAEELSRSKVTVTCLVIGFYPPDIHVEWKSNGQPEPEGNYRTTPPQQDVDGTFFLYSKLAVDKARWDHGETFECAVMHEALHNHYTQKSISKTQGK
B11: Porcine M428Y (antibody, part only; not given: variable domains and light chain, IgG1a, not shown: another chain or arm of the molecule)
Fc: GCEVAGPSVFIFPPKPKDTLMISQTPEVTCVVVDVSKEHAEVQFSWYVDGVEVHTAETRPKEEQFNSTYRVVSVLPIQHQDWLKGKEFKCKVNNVDLPAPITRTISKAIGQSREPQVYTLPPPAEELSRSKVTVTCLVIGFYPPDIHVEWKSNGQPEPEGNYRTTPPQQDVDGTFFLYSKLAVDKARWDHGETFECAVYHEALHNHYTQKSISKTQGK
B12: Equine Q311V (antibody, part only; not given: variable domains and light chain, IgG1, not shown: another chain or arm of the molecule)
Fc: APELLGGPSVFIFPPNPKDTLMITRTPEVTCVVVDVSQENPDVKFNWYMDGVEVRTATTRPKEEQFNSTYRVVSVLRIQHVDWLSGKEFKCKVNNQALPQPIERTITKTKGRSQEPQVYVLAPHPDELSKSKVSVTCLVKDFYPPEINIEWQSNGQPELETKYSTTQAQQDSDGSYFLYSKLSVDRNRWQQGTTFTCGVMHEALHNHYTQKNVSKNPGK
B13: Equine M428Y (antibody, part only; not given: variable domains, light chain, IgG1, not shown: another chain or arm of the molecule)
Fc: APELLGGPSVFIFPPNPKDTLMITRTPEVTCVVVDVSQENPDVKFNWYMDGVEVRTATTRPKEEQFNSTYRVVSVLRIQHQDWLSGKEFKCKVNNQALPQPIERTITKTKGRSQEPQVYVLAPHPDELSKSKVSVTCLVKDFYPPEINIEWQSNGQPELETKYSTTQAQQDSDGSYFLYSKLSVDRNRWQQGTTFTCGVYHEALHNHYTQKNVSKNPGK
B14: Equine Q309D (antibody, part only; not given: variable domains and light chain, IgG1, not shown: another chain or arm of the molecule)
Fc: APELLGGPSVFIFPPNPKDTLMITRTPEVTCVVVDVSQENPDVKFNWYMDGVEVRTATTRPKEEQFNSTYRVVSVLRIDHQDWLSGKEFKCKVNNQALPQPIERTITKTKGRSQEPQVYVLAPHPDELSKSKVSVTCLVKDFYPPEINIEWQSNGQPELETKYSTTQAQQDSDGSYFLYSKLSVDRNRWQQGTTFTCGVMHEALHNHYTQKNVSKNPGK
B15: Equine N434Y (antibody, part only; not given: variable domains and light chain, IgG1, not shown: another chain or arm of the molecule)
Fc: APELLGGPSVFIFPPNPKDTLMITRTPEVTCVVVDVSQENPDVKFNWYMDGVEVRTATTRPKEEQFNSTYRVVSVLRIQHQDWLSGKEFKCKVNNQALPQPIERTITKTKGRSQEPQVYVLAPHPDELSKSKVSVTCLVKDFYPPEINIEWQSNGQPELETKYSTTQAQQDSDGSYFLYSKLSVDRNRWQQGTTFTCGVMHEALHYHYTQKNVSKNPGK
B16: Equine Q309V (antibody, part only; not given: variable domains, light chain, IgG1, not shown: another chain or arm of the molecule)
Fc: APELLGGPSVFIFPPNPKDTLMITRTPEVTCVVVDVSQENPDVKFNWYMDGVEVRTATTRPKEEQFNSTYRVVSVLRIVHQDWLSGKEFKCKVNNQALPQPIERTITKTKGRSQEPQVYVLAPHPDELSKSKVSVTCLVKDFYPPEINIEWQSNGQPELETKYSTTQAQQDSDGSYFLYSKLSVDRNRWQQGTTFTCGVMHEALHNHYTQKNVSKNPGK
B17: Equine M252Y (antibody, part only; not given: variable domains, light chain, IgG1, not shown: another chain or arm of the molecule)
Fc: APELLGGPSVFIFPPNPKDTLYITRTPEVTCVVVDVSQENPDVKFNWYMDGVEVRTATTRPKEEQFNSTYRVVSVLRIQHQDWLSGKEFKCKVNNQALPQPIERTITKTKGRSQEPQVYVLAPHPDELSKSKVSVTCLVKDFYPPEINIEWQSNGQPELETKYSTTQAQQDSDGSYFLYSKLSVDRNRWQQGTTFTCGVMHEALHNHYTQKNVSKNPGK
B18: Equine Y436H (antibody, part only; not given: variable domains and light chain, IgG1, not shown: another chain or arm of the molecule)
Fc: APELLGGPSVFIFPPNPKDTLMITRTPEVTCVVVDVSQENPDVKFNWYMDGVEVRTATTRPKEEQFNSTYRVVSVLRIQHQDWLSGKEFKCKVNNQALPQPIERTITKTKGRSQEPQVYVLAPHPDELSKSKVSVTCLVKDFYPPEINIEWQSNGQPELETKYSTTQAQQDSDGSYFLYSKLSVDRNRWQQGTTFTCGVMHEALHNHHTQKNVSKNPGK
B19: Equine T286E (antibody, part only; not given: variable domains and light chain, IgG1, not shown: another chain or arm of the molecule)
Fc: APELLGGPSVFIFPPNPKDTLMITRTPEVTCVVVDVSQENPDVKFNWYMDGVEVREATTRPKEEQFNSTYRVVSVLRIQHQDWLSGKEFKCKVNNQALPQPIERTITKTKGRSQEPQVYVLAPHPDELSKSKVSVTCLVKDFYPPEINIEWQSNGQPELETKYSTTQAQQDSDGSYFLYSKLSVDRNRWQQGTTFTCGVMHEALHNHYTQKNVSKNPGK

bovine FcRn complex (bovine), sequence (chain, as listed by the source, chain 1 of 2): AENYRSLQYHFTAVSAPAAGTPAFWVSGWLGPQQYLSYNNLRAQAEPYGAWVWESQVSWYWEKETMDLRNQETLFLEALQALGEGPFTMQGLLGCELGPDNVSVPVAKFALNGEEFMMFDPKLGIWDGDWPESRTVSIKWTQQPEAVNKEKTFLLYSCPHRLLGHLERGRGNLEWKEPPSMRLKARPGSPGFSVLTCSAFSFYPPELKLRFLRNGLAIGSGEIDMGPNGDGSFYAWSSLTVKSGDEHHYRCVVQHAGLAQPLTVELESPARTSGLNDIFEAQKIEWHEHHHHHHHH
bovine FcRn complex (bovine), sequence (P01888 other isoform, or with tags, fused parts or gaps, chain 2 of 2): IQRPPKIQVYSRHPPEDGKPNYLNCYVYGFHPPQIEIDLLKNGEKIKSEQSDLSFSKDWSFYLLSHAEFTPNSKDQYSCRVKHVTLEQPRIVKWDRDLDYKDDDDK

One experiment addresses bovine FcRn complex (bovine) (UniProt F6R592). Briefly: SPR (Biacore 8K+), pH 5.9, 25 C; FcRn captured by anti-His, IgG as analyte; 1:1 kinetic model. In general terms: Surface plasmon resonance follows binding to a sensor surface in real time, without labels.
Take B1: the Fold increase over wild-type KD worked out at 1 fold and the Kd – broadly, the free concentration of one partner at which half of the binding sites on the other are occupied at equilibrium, for simple one-to-one binding – amounted to 505 nM.

The molecule B2 registered a Fold increase over wild-type KD of 3.9 fold and a Kd of 129 nM.

The molecule B3 registered a Fold increase over wild-type KD of 7.1 fold and a Kd of 71.4 nM.

The target of another experiment is porcine FcRn complex (porcine) (UniProt Q07717). The description is as above.
porcine FcRn complex (porcine), sequence (main, as listed by the source, chain 1 of 2): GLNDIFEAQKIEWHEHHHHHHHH
porcine FcRn complex (porcine), sequence (Q07717 other isoform, or with tags, fused parts or gaps, chain 2 of 2): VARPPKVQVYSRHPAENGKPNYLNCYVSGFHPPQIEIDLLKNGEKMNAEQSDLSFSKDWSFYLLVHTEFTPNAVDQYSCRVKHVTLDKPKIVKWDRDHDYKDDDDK
Molecule B4 returned a Fold increase over wild-type KD of 3.3 fold and a Kd of 96.1 nM.

Molecule B5 gave a Fold increase over wild-type KD of 40 fold and a dissociation constant (Kd) of 7.93 nM.

The molecule B6 displayed a Fold increase over wild-type KD of 3 fold and a Kd of 105 nM.

On to B7, for which the Fold increase over wild-type KD came out at 4.1 fold and the Kd came out at 76.4 nM.

For B8, the Fold increase over wild-type KD came to 3.4 fold and the Kd came to 93.6 nM.

B9: the Fold increase over wild-type KD turned out to be 9.3 fold and the Kd is 34.1 nM.

For the molecule B10, the Fold increase over wild-type KD came to 3.3 fold and the Kd stood at 97.2 nM.

As for B11, the Fold increase over wild-type KD worked out at 3.6 fold and the Kd turned out to be 86.9 nM.

The next experiment deals with equine FcRn complex (equine) (UniProt F6XZ61). The description is as above.
equine FcRn complex (equine), sequence (chain, as listed by the source, chain 1 of 2): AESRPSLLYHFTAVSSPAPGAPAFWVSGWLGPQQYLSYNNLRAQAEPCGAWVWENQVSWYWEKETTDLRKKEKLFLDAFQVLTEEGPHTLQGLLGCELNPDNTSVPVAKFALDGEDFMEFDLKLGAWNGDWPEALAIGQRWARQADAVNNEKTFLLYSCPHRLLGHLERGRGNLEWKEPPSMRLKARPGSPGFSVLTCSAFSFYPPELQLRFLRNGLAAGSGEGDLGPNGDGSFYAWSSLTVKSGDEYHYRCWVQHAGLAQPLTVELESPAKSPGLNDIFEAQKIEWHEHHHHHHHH
equine FcRn complex (equine), sequence (P30441 other isoform, or with tags, fused parts or gaps, chain 2 of 2): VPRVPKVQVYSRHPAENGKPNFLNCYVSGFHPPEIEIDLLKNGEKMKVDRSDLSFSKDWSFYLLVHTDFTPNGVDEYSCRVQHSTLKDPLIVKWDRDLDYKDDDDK
As to B12, the Fold increase over wild-type KD is 4 fold and the Kd was determined as 35.7 nM.

Molecule B13 yielded a Fold increase over wild-type KD of 0.9 fold and a Kd of 151 nM.

Regarding B14, the Fold increase over wild-type KD came to 1 fold and the Kd worked out at 144 nM.

Molecule B15 registered a Fold increase over wild-type KD of 61 fold and a Kd of 2.35 nM.

B16 had a Fold increase over wild-type KD of 7.2 fold and a Kd of 20.2 nM.

Molecule B17 displayed a Fold increase over wild-type KD of 2 fold and a Kd of 71.4 nM.

The molecule B18 registered a Fold increase over wild-type KD of 0.9 fold and a Kd of 156 nM.

As for B19, the Fold increase over wild-type KD was determined as 3 fold and the Kd worked out at 48 nM.
